PMC3989047, “Purification and characterization of tyrosinase from walnut leaves (Juglans regia)” (Phytochemistry, 2014)

Legend:
purified protein [1] = substrate: N[C@@H](Cc1ccc(O)cc1)C(=O)O; assay: purified protein; format: biochemical, Juglans regia; details: 50 mM sodium phosphate pH 6.5, five substrate concentrations 0.29-1.96 mM
purified protein [2] = substrate: N[C@@H](Cc1ccc(O)c(O)c1)C(=O)O; assay: purified protein; format: biochemical, Juglans regia; details: 50 mM sodium phosphate pH 6.5, five substrate concentrations 0.29-1.96 mM

B1: jrPPO1(Asp101 → Arg445), Juglans regia tyrosinase (form 2) (Juglans regia) (protein)
chain: DPVSAPELTLCSEADLPAGALPVNCCPPTSKKIKDFVLPSQNTPLRVRPAAHLVDNDYIAKYNKGIELMKSLPADDPRSFTQQANVHCAYCDGAYTQVGFPDLSLQVHECWLFFPFHRYYVYFFEKILGKLIGDPTFALPFWNWDSPPGMQLPSLYAVSNSAIYDPLRNANHQPPTIIDLDYGETSESTTTTDQVPSNLKIMYRQMVSGAKNPTLFFGSPYRAGDEPDPGAGTIESTPHNNIHLWTGDDTQPNIENMGNFYSAGRDPIFFAHHSNVDRMWTIWKTLGGKRKDITDPDWLNSSFFFYDENADPVRVKVKDCVDNTKLRYVYQDVEIPWLKTKPTPR
notes: native, purified from walnut leaves; 39,047 Da
Km (purified protein [1]): 1.9 mM | Vmax (purified protein [1]): 80 µM/min | Vmax/Km (purified protein [1]): 0.04 min⁻¹ | kcat (purified protein [1]): 20.8 s⁻¹ | kcat/Km (purified protein [1]): 10900 M⁻¹ s⁻¹ | Km (purified protein [2]): 8.8 mM | Vmax (purified protein [2]): 60 µM/min | Vmax/Km (purified protein [2]): 0.01 min⁻¹ | kcat (purified protein [2]): 199 s⁻¹ | kcat/Km (purified protein [2]): 22800 M⁻¹ s⁻¹
